Measurements as given in patent US20180201654A1 (UNIVERSITY OF SOUTHERN CALIFORNIA, published 2018).

Assays:
[1] = target: T1, HAUSP TRAF domain (HAUSP^62-205) (human, UniProt Q93009 62-205); assay: ITC, titration against the HAUSP TRAF domain, 20 C
T1 construct: also called TRAF-like domain of HAUSP

[2] = target: T1, HAUSP TRAF domain (HAUSP^62-205); assay: ITC
[3] = target: T2, HAUSP (Herpes virus-associated ubiquitin-specific protease), full length (human, UniProt Q93009 1-1102); assay: co-transfection in 293T cells (Flag-HAUSP with V5-vIRF4 constructs)
T2 construct: also called USP7; Flag-HAUSP

[4] = target: T3, vIRF4 (Kaposi's-sarcoma-associated-herpesvirus vIRF4), full length wild type (Kaposi's-sarcoma-associated-herpesvirus …, UniProt Q2HR73 1-911); assay: co-immunoprecipitation from transfected 293T cells, IP: V5, IB: Flag
T3 sequence: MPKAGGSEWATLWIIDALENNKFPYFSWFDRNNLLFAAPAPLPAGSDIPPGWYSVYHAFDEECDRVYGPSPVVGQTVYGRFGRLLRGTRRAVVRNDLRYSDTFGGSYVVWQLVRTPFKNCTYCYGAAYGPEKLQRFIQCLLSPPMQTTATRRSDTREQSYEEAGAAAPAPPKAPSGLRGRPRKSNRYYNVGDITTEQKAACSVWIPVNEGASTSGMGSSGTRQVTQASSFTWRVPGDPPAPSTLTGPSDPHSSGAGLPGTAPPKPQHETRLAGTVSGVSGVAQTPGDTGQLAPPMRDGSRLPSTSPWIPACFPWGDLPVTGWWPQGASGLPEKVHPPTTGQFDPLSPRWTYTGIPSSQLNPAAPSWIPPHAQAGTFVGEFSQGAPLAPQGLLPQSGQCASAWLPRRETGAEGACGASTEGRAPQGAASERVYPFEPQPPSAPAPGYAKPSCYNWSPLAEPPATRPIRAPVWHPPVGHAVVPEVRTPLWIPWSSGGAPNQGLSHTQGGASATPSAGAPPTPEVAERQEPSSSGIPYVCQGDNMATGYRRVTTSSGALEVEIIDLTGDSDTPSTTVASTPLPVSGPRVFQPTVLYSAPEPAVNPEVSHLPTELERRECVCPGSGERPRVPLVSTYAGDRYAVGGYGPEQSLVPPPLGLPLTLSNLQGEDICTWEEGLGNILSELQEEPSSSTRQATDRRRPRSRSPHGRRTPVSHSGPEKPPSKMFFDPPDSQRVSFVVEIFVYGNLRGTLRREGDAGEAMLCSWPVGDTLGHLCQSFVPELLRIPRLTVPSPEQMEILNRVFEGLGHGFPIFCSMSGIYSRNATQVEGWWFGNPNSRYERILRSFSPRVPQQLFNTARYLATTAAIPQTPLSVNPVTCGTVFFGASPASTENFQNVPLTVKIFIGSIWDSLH

T1 sequence (Q93009 62-205): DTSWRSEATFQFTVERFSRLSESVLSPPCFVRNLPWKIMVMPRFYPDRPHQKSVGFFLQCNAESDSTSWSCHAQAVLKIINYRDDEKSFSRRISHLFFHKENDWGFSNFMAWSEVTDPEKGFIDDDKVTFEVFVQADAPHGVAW

B1: vIRF4^153-256 (other)
chain: SDTREQSYEEAGAAAPAPPKAPSGLRGRPRKSNRYYNVGDITTEQKAACSVWIPVNEGASTSGMGSSGTRQVTQASSFTWRVPGDPPAPSTLTGPSDPHSSGAG
For B1, the Ka [1] was 1.32e+07 M⁻¹, the Kd [1] was 76 nM and the TΔS [1] was -10.1 kcal/mol. It also gave a n [1] of 1.13, a ΔG [1] of -7.64 kcal/mol and a ΔH [1] of -17.7 kcal/mol. The “fold higher affinity (against vIRF4^153-216 and vIRF4^202-216)” value [2] was 7 fold.

B2: vIRF4Δ^202-256 mutant (other)
chain: MPKAGGSEWATLWIIDALENNKFPYFSWFDRNNLLFAAPAPLPAGSDIPPGWYSVYHAFDEECDRVYGPSPVVGQTVYGRFGRLLRGTRRAVVRNDLRYSDTFGGSYVVWQLVRTPFKNCTYCYGAAYGPEKLQRFIQCLLSPPMQTTATRRSDTREQSYEEAGAAAPAPPKAPSGLRGRPRKSNRYYNVGDITTEQKAACLPGTAPPKPQHETRLAGTVSGVSGVAQTPGDTGQLAPPMRDGSRLPSTSPWIPACFPWGDLPVTGWWPQGASGLPEKVHPPTTGQFDPLSPRWTYTGIPSSQLNPAAPSWIPPHAQAGTFVGEFSQGAPLAPQGLLPQSGQCASAWLPRRETGAEGACGASTEGRAPQGAASERVYPFEPQPPSAPAPGYAKPSCYNWSPLAEPPATRPIRAPVWHPPVGHAVVPEVRTPLWIPWSSGGAPNQGLSHTQGGASATPSAGAPPTPEVAERQEPSSSGIPYVCQGDNMATGYRRVTTSSGALEVEIIDLTGDSDTPSTTVASTPLPVSGPRVFQPTVLYSAPEPAVNPEVSHLPTELERRECVCPGSGERPRVPLVSTYAGDRYAVGGYGPEQSLVPPPLGLPLTLSNLQGEDICTWEEGLGNILSELQEEPSSSTRQATDRRRPRSRSPHGRRTPVSHSGPEKPPSKMFFDPPDSQRVSFVVEIFVYGNLRGTLRREGDAGEAMLCSWPVGDTLGHLCQSFVPELLRIPRLTVPSPEQMEILNRVFEGLGHGFPIFCSMSGIYSRNATQVEGWWFGNPNSRYERILRSFSPRVPQQLFNTARYLATTAAIPQTPLSVNPVTCGTVFFGASPASTENFQNVPLTVKIFIGSIWDSLH
B2: no binding [3].

B3: Flag/HAUSP 205-1108 (enzyme)
single chain: WDSKKHTGYVGLKNQGATCYMNSLLQTLFFTNQLRKAVYMMPTEGDDSSKSVPLALQRVFYELQHSDKPVGTKKLTKSFGWETLDSFMQHDVQELCRVLLDNVENKMKGTCVEGTIPKLFRGKMVSYIQCKEVDYRSDRREDYYDIQLSIKGKKNIFESFVDYVAVEQLDGDNKYDAGEHGLQEAEKGVKFLTLPPVLHLQLMRFMYDPQTDQNIKINDRFEFPEQLPLDEFLQKTDPKDPANYILHAVLVHSGDNHGGHYVVYLNPKGDGKWCKFDDDVVSRCTKEEAIEHNYGGHDDDLSVRHCTNAYMLVYIRESKLSEVLQAVTDHDIPQQLVERLQEEKRIEAQKRKERQEAHLYMQVQIVAEDQFCGHQGNDMYDEEKVKYTVFKVLKNSSLAEFVQSLSQTMGFPQDQIRLWPMQARSNGTKRPAMLDNEADGNKTMIELSDNENPWTIFLETVDPELAASGATLPKFDKDHDVMLFLKMYDPKTRSLNYCGHIYTPISCKIRDLLPVMCDRAGFIQDTSLILYEEVKPNLTERIQDYDVSLDKALDELMDGDIIVFQKDDPENDNSELPTAKEYFRDLYHRVDVIFCDKTIPNDPGFVVTLSNRMNYFQVAKTVAQRLNTDPMLLQFFKSQGYRDGPGNPLRHNYEGTLRDLLQFFKPRQPKKLYYQQLKMKITDFENRRSFKCIWLNSQFREEEITLYPDKHGCVRDLLEECKKAVELGEKASGKLRLLEIVSYKIIGVHQEDELLECLSPATSRTFRIEEIPLDQVDIDKENEMLVTVAHFHKEVFGTFGIPFLLRIHQGEHFREVMKRIQSLLDIQEKEFEKFKFAIVMMGRHQYINEDEYEVNLKDFEPQPGNMSHPRPWLGLDHFNKAPKRSRYTYLEKAIKIHN
notes: N-terminal deletion fragment without the TRAF domain
B3: no binding [4].
